In the nanobody polyreactivity screen of Harvey et al. (2022):

Assay: yeast display, Sf9 membrane polyspecificity reagent, FACS + sequencing; frameworks hold sequencing errors
Procedure, shortened: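 A synthetic nanobody library was expressed on Saccharomyces cerevisiae BJ5465 by galactose induction for 36–48 hours. The library was stained for 1 hour at 4 °C with 10% biotinylated, detergent-solubilized Sf9 membrane reagent and enriched with streptavidin microbeads before FACS. Low and high (top ~1%) gates were set on anti-HA fluorescence for expression and streptavidin fluorescence for reagent binding, and each polyreactivity label reflects the gate of origin.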

Sequence	polyreactivity (PSR sort gate)
QVQLVESGGGLVQAGGSLRLSCAASGSTFNINAMGWYRQAPGKERELVAAISSRGGSTYYADSVKGRFTISRDNAKNTVYLQMNSLKPEDTAVYYCAASPRRVENAGRVRLYYWGQGTQVTVSS	high polyreactivity
QVQLVESGGGLVQAGGSLRLSCAASGSTFNIYAMGWYRQAPGKERELVAAISGNGDRTYYADSVKGRFTISRDNAKNTVYLQMNSLKPEDTAVYYCAAKYYGWGQGTQVTVSS	high polyreactivity
QVQLVESGGGLVQAGGSLRLSCAASGSTFNIYVMGWYRQAPGKERELVAAISTSGRTYYADSVKGRFTISRDNAKNTVYLQMNSLKPEDTAVYYCNAGYWVRKYYHGGYWGQGTQVTVSS	high polyreactivity
QVQLVESGGGLVQAGGSLRLSCAASGSTFNKNAMGWYRQAPGNERELVAVISRSGGSTHYADSVKGRFTISRDNAKNTVYLQMNSLKPEDTAVYYCATPFSYRRRTSASPYLYDYWGQGTQVTVSS	high polyreactivity
QVQLVESGGGLVQAGGSLRLSCAASGSTFNKYAMVWYRQAPGKERELVAAITGSGGRTYYADSVKGRFTISRDTAKNTVYLQMNSLKPEHTAVYYCNAGITHGYDYWGQGTQVSVSS	high polyreactivity
QVQLVESGGGLVQAGGSLRLSCAASGSTFNLYAIGWYRQAPGKEREFVAAIRGRGGNTYADSVKRRFTISRDNAKNTVYLQMNSLKPEDTAVYYCAAPLLRDLRSPYSYKYWGQGTQVTVSS	low polyreactivity
QVQLVESGGGLVQAGGSLRLSCAASGSTFNPYAMGWYRQAPGKERELVAAINSRGGSTYYADSVKGRFTISRDNAKNTVYLQMNSLKPEDSAVYYCAARTRRRTSAYEYWGQGTQVTVSS	high polyreactivity
QVQLVESGGGLVQAGGSLRLSCAASGSTFNQYDMGWYRQAPGKERELVAAITWSGTSTYYADSVKGRFTISRDNAKNTVYLQMNSLTPEDTAVYYCAADDPFHSSCWTYRYGYWGQGTQVTVSS	low polyreactivity
QVQLVESGGGLVQAGGSLRLSCAASGSTFNRNAMGWYRQAPGKERDLVAAISWRGDTTSYADSVKGRSTISRDNAKNTFYLQMNSLNPEDTAVYYCATAHDYAFYRYWYVPSEYNYWGQGTQVTVSS	low polyreactivity
QVQLVESGGGLVQAGGSLRLSCAASGSTFNRYAMGWYRQAPGKARELVATNNSGTSTNYADSVKGRFTISRDNAKNTVYLQKNSLKPEDTAVYYCAKTFRRSVGGYGYEYWGQGTQVTVSS	low polyreactivity
QVQLVESGGGLVQAGGSLRLSCAASGSTFNSNVMGWYRQAPGKERELVAAISRSGGNTYYADSVKGRFTISRDNAKNTVYLQMNSLKPEDTAVYYCNKAGRYPYDYWGQGTQVTVSS	high polyreactivity
QVQLVESGGGLVQAGGSLRLSCAASGSTFNSYAMGWYRQAPGKERELVAAISRSGGRTYYADSVKGRFTISRDNAKNNVYLQMSSMKPEDTAVYYCAAVHNANRGYPFEYWGQGTQVTVSS	high polyreactivity
QVQLVESGGGLVQAGGSLRLSCAASGSTFNVNAMGWYRQSPGKERELVAAITSSGGSTNYADSVKGRFTFSRDNAKYTVYLQMNSLNPEDTAFYYCAAYAIYFSRLNLGYDYWGQGTQVTVSS	low polyreactivity
QVQLVESGGGLVQAGGSLRLSCAASGSTFNVYAMGWYRQAPGKERELVARISWSGGNTYYADSVKGRFTISRDNAKNTVYLQMNSLKPEDTAVYYCATKGYTGYAYRYGYWGQGTQVTVSS	high polyreactivity
QVQLVESGGGLVQAGGSLRLSCAASGSTFNYNAMGWYRQAPGKERELVAAITYSGSSTYYADSVKGRFTISRDNAKNTVYLQMNSLKPEDTAVYYCAAPPYNRPGYGYDYWGQGTQVTVSS	high polyreactivity
QVQLVESGGGLVQAGGSLRLSCAASGSTFPANAMGWYRQAPGKERELVAAISSVGSTNYADSVRGRFTLSRDNAKNTVYLQMNSLKPEDTAVYYCATQPTWYTVGDLDYWGQGTQVTVSS	low polyreactivity
QVQLVESGGGLVQAGGSLRLSCAASGSTFPDNAMGWYRQAPGKERELVAAISFSSGSTYYADSVKGRFTISRDNAKNTVYLQMNSLKPEDTAVYYCAADSYPAYLGFVGFDYWGQGTQVTVSS	low polyreactivity
QVQLVESGGGLVQAGGSLRLSCAASGSTFPDNAMGWYRQAPGKERELVAAISFSSGSTYYADSVKGRFTISRDNAKNTVYLQMNSLKPEDTAVYYCAVANPSPYEWIAYYYWGQGTQVTVSS	low polyreactivity
QVQLVESGGGLVQAGGSLRLSCAASGSTFPFYAMGWYRQAPGKEREFVAVISSSGGSTYYADSVKGRFTISRDNAKNTVYLQMNSLKPEDTAVYYCARSYPGRWYDYWGQGTQVTVSS	high polyreactivity
QVQLVESGGGLVQAGGSLRLSCAASGSTFPGNTMGSYRQAPGKERELVAAITWNGGSTYYADSVKGRFTISRDNAKNNVYLQMNRLKPEDTAVYYCATRARVTYYYWGLGTQVTVSS	high polyreactivity
QVQLVESGGGLVQAGGSLRLSCAASGSTFPHNAMGWYRQAPGKERELVAAISVGGGSSHYADSVKGRFTISRDNAKNNVYLQMNSLKPEDTAVYYCAKDYAYQYSFVTYDYWGQGTQVTVSS	low polyreactivity
QVQLVESGGGLVQAGGSLRLSCAASGSTFPHYAMGWYRQAPGKERELVAAISVRGGRTYYADSVKGRFTISRDNAKNTVYLQMNSLKPEDTAVYYCNKYYYFTKYGYWGQGTQVTVSS	high polyreactivity

Sequence	polyreactivity (PSR sort gate)
QVQLVESGGGLVQAGGSLRLSCAASGSTFPHYAMGWYRQAPGKERELVAAISWSGSSTYYADSVKGRFTISRDNAKNTVYLQMNSLKPEDTAVYYCNKLPRRAPQFTYDYWGQGTLVTVSS	high polyreactivity
QVQLVESGGGLVQAGGSLRLSCAASGSTFPHYAMGWYRQAPGKERELVAAISWSGSSTYYADSVKGRFTISRDNAKNTVYLQMNSLKPEDTAVYYCNKLPRRAPQFTYDYWGQGTQVTVSS	high polyreactivity
QVQLVESGGGLVQAGGSLRLSCAASGSTFPIYAMGWYRQAPGKERELVAAITWRGGSRTYYADSVKGRFTISRDNAKNTVYLQMNSLKPEDTAVYYCAAEYQWPLYGYWGQGTQVTVSS	low polyreactivity
QVQLVESGGGLVQAGGSLRLSCAASGSTFPKNAKGWYRPAPGKERELVAAINTGGSTYYADSVKGRFTISRDNAKNTVYLQMNSLKPEDTAVYYCAARDNYHRDVGHPYDYWGQGTQVTVSS	low polyreactivity
QVQLVESGGGLVQAGGSLRLSCAASGSTFPKYAMGWYRQAPGKERELVAGISWRGGRTYYADSVKGRFTISRDNAKNTVYLQMNSLKPEDTAVYYCATDYYAFNQGEVKWYDYWGQGTQVSVSS	high polyreactivity
QVQLVESGGGLVQAGGSLRLSCAASGSTFPKYAMGWYRQAPGKERELVASISVTTGSTYYADSVKGRFTISRDNAKITVYLQMNSLKPEDTAVYYCAKYRPGIPYYQYGSWGQGTQVTVSS	high polyreactivity
QVQLVESGGGLVQAGGSLRLSCAASGSTFPLYAMGWYRQAPGKERELVAAITGGGGRTYYADSVKGRFTISRDNAKNTVYLQMNSLKPEDTAVYYCATDSFGYDWYWGQGTQVTVSS	low polyreactivity
QVQLVESGGGLVQAGGSLRLSCAASGSTFPLYAMGWYRQAPGKERELVAAITSGGGNTYYADSVKGRFTISRDNAKNTVYLQMNSLKPEDTAVYYCAAVGGYKSYYSYEYDYWGQGTQVTVSS	low polyreactivity
QVQLVESGGGLVQAGGSLRLSCAASGSTFPLYTRGWYRQAPGKERELVAAISGGSTTYYADSVKGRFTISRDNAKNTVYLQMNSLKPEDTAVYYCAAYAYTSRWYGFDYWGQGTQVTVSS	low polyreactivity
QVQLVESGGGLVQAGGSLRLSCAASGSTFPPNAMGWSRQAPGKERELVAAISERGGSTYYADSVKGRFTISRDNAKNTVYLQMNSLKPEDTAVYYCAVDYYYLMYWGQGTQVTVSS	low polyreactivity
QVQLVESGGGLVQAGGSLRLSCAASGSTFPPNTMGWYRQAPGKERELVAAITQRGGNTYYADSVKGRFTISRDNAKNTVYLQMNSLKPEDTAVYYCATRYRYKGYYGQYEYWGQGTQVTVSS	high polyreactivity
QVQLVESGGGLVQAGGSLRLSCAASGSTFPRNDMGWYRQAPGNERELVAAISRGGSTNYADSVKGRFTISRDNANNTVYLQMNSMKPEDTAVYYCAAQIFESAYGMDYWGQGTQVTVSS	low polyreactivity
QVQLVESGGGLVQAGGSLRLSCAASGSTFPRYAMAWYRQAPGKERELVAAISSSGRTYYADSVKGRFTISRDNAKNTFYLQMNSLKPEDTAVYYCNAPVARGEASYYWGQGTQVTVSS	high polyreactivity
QVQLVESGGGLVQAGGSLRLSCAASGSTFPRYAMGWYRQAPGKEREFVAAISRRGGSTYYADSVKGRFTISRDNAKNTVYLQMNSLKPEDTAVYYCAKYLPTRVWGTGRFDYWGQGTQVTVSS	high polyreactivity
QVQLVESGGGLVQAGGSLRLSCAASGSTFPRYAMGWYRQAPGKERELVAAISGRGGSTYYADSVKGRFTISRDYAKNTVYLQMNSLKPEDTAVYYCNAYRRYYTMYYWGQGTQVTVSS	high polyreactivity
QVQLVESGGGLVQAGGSLRLSCAASGSTFPSNAMGWYRQAPGKERELVAAISRGGGTTYYADSVKGRFTISRDNAKNTVYLQMNSLKPEDTAVYYCATRGSVGWFDGGGYWGQGTQVTVSS	high polyreactivity
QVQLVESGGGLVQAGGSLRLSCAASGSTFPSNAMGWYRQAPGKERELVAAISRSGGSTNYADSVKGRFTISRDNAKNTVYLQMNSLKPVDTAVYYCKADLGRATFYQRVFIERGGYWGQGTQVTVSS	low polyreactivity
QVQLVESGGGLVQAGGSLRLSCAASGSTFPSNAMGWYRQAPGKERELVAAISRSGGSTYYADSVKGRFTISRDNAKNTVYLQMNSLKPEDTAVYFCAVQVRPNSGGTRIHRGGYDYWGQGTQVTVSS	low polyreactivity
QVQLVESGGGLVQAGGSLRLSCAASGSTFPSYAMGWYRQAPGKESELVAAITNGGSTTYADSVKGRFTISRDNAKNTVYLQMNSLKPEDTAVYYCAARYYYYYYYIRRDYWGQGTQVTVSS	low polyreactivity
QVQLVESGGGLVQAGGSLRLSCAASGSTFPTNAMGWYRQAPGKERELVADINGNGGRTYYADSVKGRFTISRDNAKNTVYLQMNSLKPEDTAVYYCAVEPDVYPSWYYYVDYDYWGQGTQVTVSS	low polyreactivity
QVQLVESGGGLVQAGGSLRLSCAASGSTFPTYAMGWYRPAPGKERELVAAITRGGRTYYADSVKGRFTISRDNAKNTVYLQMNSLKPEDTAVYYCAAVYYGAAQYNYWGQGTQVTVSS	high polyreactivity
